IntAct's records for PubMed 20473270

B1: Zinc finger HIT domain-containing protein 1 (Homo sapiens), O43257 (parent)
chain: MVEKKTSVRSQDPGQRRVLDRAARQRRINRQLEALENDNFQDDPHAGLPQLGKRLPQFDDDADTGKKKKKTRGDHFKLRFRKNFQALLEEQNLSVAEGPNYLTACAGPPSRPQRPFCAVCGFPSPYTCVSCGARYCTVRCLGTHQETRCLKWTV

Variants of: B1
Conditions: with arp6_human ACTR6, Q9GZN1
arp6_human ACTR6, Q9GZN1, sequence (Q9GZN1 whole entry): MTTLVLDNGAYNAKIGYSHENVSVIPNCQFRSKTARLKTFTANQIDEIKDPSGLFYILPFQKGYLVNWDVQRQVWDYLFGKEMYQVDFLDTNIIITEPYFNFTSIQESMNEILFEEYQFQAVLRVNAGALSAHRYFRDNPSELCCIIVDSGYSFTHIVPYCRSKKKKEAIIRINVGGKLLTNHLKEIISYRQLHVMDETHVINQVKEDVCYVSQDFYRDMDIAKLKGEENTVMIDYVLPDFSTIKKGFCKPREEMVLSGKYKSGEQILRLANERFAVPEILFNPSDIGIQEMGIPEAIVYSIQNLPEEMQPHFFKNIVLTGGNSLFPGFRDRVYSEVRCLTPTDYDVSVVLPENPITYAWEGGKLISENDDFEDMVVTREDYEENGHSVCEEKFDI

| Variant | effect of a mutation on the interaction |
| --- | --- |
| MVEKKASVRSQDPGQRRVLDRAARQRRINRQLEALENDNFQDDPHAGLPQLGKRLPQFDDDADTGKKKKKTRGDHFKLRFRKNFQALLEEQNLSVAEGPNYLTACAGPPSRPQRPFCAVCGFPSPYTCVSCGARYCTVRCLGTHQETRCLKWTV [T6A] | disrupting interaction |
| MVEKKTSVRSQDPGQRRVLDRAARQRRINRQLEALENDNFQDDPHAGLPQLGKRLPQFDDDADTGKKKKKTRGDHFKLRFRKNFQALLEEQNLSVAEGPNYLAACAGPPSRPQRPFCAVCGFPSPYTCVSCGARYCTVRCLGTHQETRCLKWTV [T103A] | disrupting interaction |

More lines, now with the values ahead:

| effect of a mutation on the interaction | Variant |
| --- | --- |
| disrupting interaction | MVEKKTSVRSQDPGQRRVLDRAARQRRINRQLEALENDNFQDDPHAGLPQLGKRLPQFDDDADAGKKKKKTRGDHFKLRFRKNFQALLEEQNLSVAEGPNYLTACAGPPSRPQRPFCAVCGFPSPYTCVSCGARYCTVRCLGTHQETRCLKWTV [T64A] |
| disrupting interaction | MVEKKTSVRSQDPGQRRVLDRAARQRRINRQLEALENDNFQDDPHAGLPQLGKRLPQFDDDADTGKKKKKARGDHFKLRFRKNFQALLEEQNLSVAEGPNYLTACAGPPSRPQRPFCAVCGFPSPYTCVSCGARYCTVRCLGTHQETRCLKWTV [T71A] |
